Tested on: MS2 coat protein
Experiment: apparent KD of MS2 coat protein; designed switch direction (-1 OFF switch, 1 ON switch): -1; higher = weaker reporter binding
Outline: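 The buffer was Tris-HCl pH 7.5 with KCl, MgCl2, BSA, DTT, tRNA and Tween-20. In it, SNAP-549-labelled MS2 coat protein was titrated in doubling steps from 0.7 or 1.5 nM to 3 µM over chip-bound RNA switches transcribed by stalled E. coli RNA polymerase on Illumina chips. Apparent KD is the per-design median over clusters of curve fits to normalised fluorescence.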

[1] = Eterna round: R95, input ligand: microRNA oligo, concentration not stated
[2] = input ligand: microRNA oligo, concentration not stated
[3] = Eterna round: R95, input ligand: FMN 200 uM
[4] = Eterna round: R95, input ligand: none

Sequence: AAAUUAGCAAGUAGAUCCGACAUGAGGAUCACCCAUGUUAUCUGAAAGAACGCAGAAUAAUUGUGAGCUCGUCUAAA [Sensor-V1 #3] (Eterna round: R97, puzzle: Sensor, turn-off variant 1)
- apparent KD of MS2 coat protein (input ligand: FMN 200 uM): 162 nM
- apparent KD of MS2 coat protein (input ligand: none): 181 nM

Sequence: AAAUUAGCAAGUAGGUCCGACAUGAGGAUCACCCAUGUAAUCUAAUAUUACGCUGCAUGAGAGUGCGCUCGUCUUAG [Sensor-V1 #17] (Eterna round: R97, puzzle: Sensor, turn-off variant 1)
- apparent KD of MS2 coat protein (input ligand: FMN 200 uM): 241 nM
- apparent KD of MS2 coat protein (input ligand: none): 337 nM

Sequence: AACAAGGUAGGAUAUACAUGAGGAUCACCCAUGUCCCACCCGUUACCUAUGACCAUAUGUAGAAGGACCAAUAA [Exy#6] (Eterna round: R97, puzzle: Exclusion 3)
- apparent KD of MS2 coat protein (input ligand: FMN 200 uM): 16.7 nM
- apparent KD of MS2 coat protein (input ligand: none): 17.8 nM

Sequence: AACAAUAAGGAGGAUAUCGUAUCGGAAACGAUACGAGAAGGCUUAACAUGAGGAUCACCCAUGUUCCUCAAUAA [Fiskers Ex 6 - 23] (puzzle: Exclusion 6)
- apparent KD of MS2 coat protein [1]: 33.1 nM

Sequence: AACAGCACAGGAUAUACAUGAGGAUCACCCAUGUGAGAAUUAAGUGGCGUACCACAAAGUAGAAGGGUGCUGGA [Mat - Exclusion 3 - JL mod - D39] (Eterna round: R96, puzzle: Exclusion 3)
- apparent KD of MS2 coat protein [2]: 36 nM

Sequence: AACAGGUCAGGAUAUACAUGAGGAUCACCCAUGUAGACUUCUAGUCUAUCGUGACUGUGUAGAAGGGACCUGAA [Exclusion 3 (MOD of #98 Marzena11)] (Eterna round: R97, puzzle: Exclusion 3)
- apparent KD of MS2 coat protein (input ligand: FMN 200 uM): 146 nM
- apparent KD of MS2 coat protein (input ligand: none): 40.1 nM

Sequence: AACAGUGAUGAGGAUAUAUAAAGAGAAAAGAAAAUAGAAGGUGUCACAUGAGGAUCACCCAUGUGUUCUUCAGA [EX6 A.12] (Eterna round: R97, puzzle: Exclusion 6)
- apparent KD of MS2 coat protein (input ligand: FMN 200 uM): 17.4 nM
- apparent KD of MS2 coat protein (input ligand: none): 16.5 nM

Sequence: AACAUGUCAGGAUAUAUGACAUGGCUCUUCGGAGCAAGCUCAUAGAAGGGACAUGAGGAUCACCCAUGUAGAGC [Ex4-3: 21] (puzzle: Exclusion 4)
- apparent KD of MS2 coat protein [1]: 21.7 nM

Sequence: AACCAGCGAGGAUAUGCUUGCGCUUGUUCUGGUUAUAAUCGACUUGAGGAUCACCCAAGUAGAAGGUGCUGGCG [EX2 #56] (Eterna round: R97, puzzle: Exclusion 2)
- apparent KD of MS2 coat protein (input ligand: FMN 200 uM): 28.7 nM
- apparent KD of MS2 coat protein (input ligand: none): 22.5 nM

Sequence: AACCUAAGGCAUAGCUUUAGGUUUACAUGAGGAUCACCCAUGUAGGAUAUGGUAGGCAUAGCUUACCAGAAGGACAUGAAAAUU [Mat - Exclusion NG 3 - Mod of JL - D31] (Eterna round: R96, puzzle: Exclusion NG 3)
- apparent KD of MS2 coat protein (input ligand: FMN 200 uM): 240 nM
- apparent KD of MS2 coat protein [2]: 46.8 nM
- apparent KD of MS2 coat protein (input ligand: none): 46.1 nM

Sequence: AACCUGAGGCAAAGCUUUAGGUGUACAUGAGGAUCACCCAUGUAGGAUAUGGUAGGCAAAGCUUACCAGAAGGACAUUUAGGUU [Mat - Exclusion NG 3 - Mod of JL - D44] (Eterna round: R96, puzzle: Exclusion NG 3)
- apparent KD of MS2 coat protein (input ligand: FMN 200 uM): 81.6 nM
- apparent KD of MS2 coat protein [2]: 36.5 nM
- apparent KD of MS2 coat protein (input ligand: none): 52.1 nM

Sequence: AACCUGAGGCAAAGCUUUAGGUGUACAUGAGGAUCACCCAUGUAGGAUAUGGUAGGCUUUGCUUACCAGAAGGACAUUAUGAUG [Mat - Exclusion NG 3 - Mod of JL - D50] (Eterna round: R96, puzzle: Exclusion NG 3)
- apparent KD of MS2 coat protein (input ligand: FMN 200 uM): 68.6 nM
- apparent KD of MS2 coat protein [2]: 41.9 nM
- apparent KD of MS2 coat protein (input ligand: none): 51.7 nM

Sequence: AACGACGGAGGAUAUACACCCUGGGACUCAUUAUCCCUUAGACAUGAGGAUCACCCAUGUAGAAGGCCGAACAC [EX2 B.3] (Eterna round: R97, puzzle: Exclusion 2)
- apparent KD of MS2 coat protein (input ligand: FMN 200 uM): 174 nM
- apparent KD of MS2 coat protein (input ligand: none): 29.8 nM

Sequence: AACGGUGGGUAGGAUAUCCGGUUCUAGUUGCCAGGAGAAGGGCCCACAUGAGGAUCACCCAUGUGGGUGGGCUC [Maesri] (Eterna round: R96, puzzle: Exclusion 6)
- apparent KD of MS2 coat protein (input ligand: FMN 200 uM): 44.6 nM
- apparent KD of MS2 coat protein [2]: 43.1 nM
- apparent KD of MS2 coat protein (input ligand: none): 81.3 nM

Sequence: AACGGUGGGUAGGAUAUCCGGUUCUAGUUGCCAGGAGAAGGGCCCACAUGAGGAUCACCCAUGUGGGUGGGCUC [Maesri] (puzzle: Exclusion 6)
- apparent KD of MS2 coat protein [1]: 43.6 nM

Sequence: AACGUACGUCGAGGAUAUGACGAGAAAUAUGAGUCAGAAGGCGACUGGUACAUGAGGAUCACCCAUGUUGCGACCAUGUGGCUU [Eternabot solution 23] (Eterna round: R96, puzzle: Exclusion NG 1)
- apparent KD of MS2 coat protein (input ligand: FMN 200 uM): 53.7 nM
- apparent KD of MS2 coat protein [2]: 13.4 nM
- apparent KD of MS2 coat protein (input ligand: none): 17.9 nM

Sequence: AACGUCUAGGUAGGAUAUCCACCAACAGGUGGAAGGAUAUGUUCGCAGAAGGUUCGCCAACAGGCGGAGAAGGACCUACGCGUA [pwkr exNG2 2xF7 2xFMN.31] (Eterna round: R96, puzzle: Exclusion NG 2)
- apparent KD of MS2 coat protein (input ligand: FMN 200 uM): 11.1 nM
- apparent KD of MS2 coat protein [2]: 24.6 nM
- apparent KD of MS2 coat protein (input ligand: none): 116 nM

Sequence: AAGAAACAUGAGGAUCACCCAUGUGAGGAUAUGAAAAAGAAAAGAAAAGAAAGAAGGUUCAGAAGGCACAAAGG [salish99-ex1_r3_027] (Eterna round: R96, puzzle: Exclusion 1)
- apparent KD of MS2 coat protein [2]: 25.4 nM

Sequence: AAGAAACAUGAGGAUCACCCAUGUGAGGAUAUGAAAAAGAAAAGAAAAGAAAGAAGGUUCAGAAGGCACAAAGG [salish99-ex1_r3_027] (puzzle: Exclusion 1)
- apparent KD of MS2 coat protein [3]: 48.6 nM
- apparent KD of MS2 coat protein [1]: 45.8 nM
- apparent KD of MS2 coat protein [4]: 28.5 nM

Sequence: AAGAAACAUGAGGAUCACCCAUGUGAGGAUAUGAAAAAGAAAAGAAAAGAAAGAAUAAUCAGAAGGCACAAAGG [Mat - Mod of Hog D11] (puzzle: Exclusion 1)
- apparent KD of MS2 coat protein [3]: 50.7 nM
- apparent KD of MS2 coat protein [1]: 34.3 nM
- apparent KD of MS2 coat protein [4]: 40.1 nM

Sequence: AAGAAACAUGAGGAUCACCCAUGUGAGGAUAUGAGAAAGAAAAGAAAAGAAAGAAGAAUCAGAAGGCACAAAGG [salish99-ex1_r3_032] (puzzle: Exclusion 1)
- apparent KD of MS2 coat protein [3]: 117 nM
- apparent KD of MS2 coat protein [1]: 77.7 nM
- apparent KD of MS2 coat protein [4]: 116 nM

Sequence: AAGAAACAUGAGGAUCACCCAUGUGAGGAUAUGAGUAAGAAAAGAAAAGAAAGAAGAUUCAGAAGGCACAAAGG [salish99-ex1_r3_057] (puzzle: Exclusion 1)
- apparent KD of MS2 coat protein [3]: 94.7 nM
- apparent KD of MS2 coat protein [1]: 58.1 nM
- apparent KD of MS2 coat protein [4]: 73.2 nM

Sequence: AAGAAACAUGAGGAUCACCCAUGUGAGGAUAUGAUAUGCUAAGCGUAAGCUUAGUAUAUCAGAAGGCACAAAGG [Salishxlusion 1 - Jieux - Exclusion 1] (Eterna round: R97, puzzle: Exclusion 1)
- apparent KD of MS2 coat protein (input ligand: FMN 200 uM): 319 nM
- apparent KD of MS2 coat protein (input ligand: none): 120 nM

Sequence: AAGAAACAUGAGGAUCACCCAUGUGAGGAUAUGGCCCGCCCGGCGUGAGCUGGAUAAAUCAGAAGGCACAAAGG [salish99_ex1_r4_012] (Eterna round: R97, puzzle: Exclusion 1)
- apparent KD of MS2 coat protein (input ligand: FMN 200 uM): 57.2 nM
- apparent KD of MS2 coat protein (input ligand: none): 46 nM

Sequence: AAGAAACAUGAGGAUCACCCAUGUGAGGAUAUGUAAAAGAAAAGAAAAUAAAGAAGAAACAGAAGGCACAAAGG [Mat - Mod of Hog D21] (Eterna round: R96, puzzle: Exclusion 1)
- apparent KD of MS2 coat protein [2]: 30.9 nM

Sequence: AAGAAACAUGAGGAUCACCCAUGUGAGGAUAUGUAAAAGAAAAGAAAAUAAAGAAGAAACAGAAGGCACAAAGG [Mat - Mod of Hog D21] (puzzle: Exclusion 1)
- apparent KD of MS2 coat protein [3]: 51.8 nM
- apparent KD of MS2 coat protein [1]: 39.1 nM
- apparent KD of MS2 coat protein [4]: 31.8 nM

Sequence: AAGAAAGACGAAGGAUAUUCAGGCGCCGAAGUAGAAGAAGGUCGUCCGGGUGUCCUAAAACUUGAGGAUCACCCAAGUAGAAGA [Mutated MS2 EX1.2] (Eterna round: R96, puzzle: Exclusion NG 1)
- apparent KD of MS2 coat protein (input ligand: FMN 200 uM): 62.1 nM
- apparent KD of MS2 coat protein [2]: 6.43 nM
- apparent KD of MS2 coat protein (input ligand: none): 25.5 nM

Sequence: AAGAAGCAAGGAUAUACAGAGGAGAGUAAAGCAAGAGGAGAACAUGAGGAUCACCCAUGUAGAAGGUGCAGAGA [JR_Exclu2_Sub018] (puzzle: Exclusion 2)
- apparent KD of MS2 coat protein [3]: 40.3 nM
- apparent KD of MS2 coat protein [1]: 20.3 nM
- apparent KD of MS2 coat protein [4]: 29.1 nM

Sequence: AAGAGUGCAGGAUAUACUUGAUAGGGUAAGGUGAGUGAGGGACAUGAGGAUCACCCAUGUAGAAGGGCAGAGAG [JR_Exclu2_Sub058] (puzzle: Exclusion 2)
- apparent KD of MS2 coat protein [3]: 25.8 nM
- apparent KD of MS2 coat protein [1]: 33.4 nM
- apparent KD of MS2 coat protein [4]: 26.3 nM

Sequence: AAGAUGUCAGGAUAUUAGUAGUAAAUAAAUAAAAUUAUUACUGAGAAGGGACAUGAGGAUCACCCAUGUGCCUU [Salish 062 v10] (Eterna round: R97, puzzle: Exclusion 4)
- apparent KD of MS2 coat protein (input ligand: FMN 200 uM): 16.4 nM
- apparent KD of MS2 coat protein (input ligand: none): 16.9 nM

Sequence: AAGAUGUGAGGAUAUCACGAAGGCGUCAAACUGACGCCUUCUGAGAAGGCACAUGAGGAUCACCCAUGUCCAAA [EX4 A.23] (Eterna round: R97, puzzle: Exclusion 4)
- apparent KD of MS2 coat protein (input ligand: FMN 200 uM): 325 nM
- apparent KD of MS2 coat protein (input ligand: none): 58.6 nM

Sequence: AAGCAUGGAGGAUAUACAUGAGGAUCACCCAUGUCCAGGUCCACGGGUAUUUUGUUGCGUAGAAGGCCAUGUAG [Eternabot (L2) Solution 21] (Eterna round: R97, puzzle: Exclusion 3)
- apparent KD of MS2 coat protein (input ligand: FMN 200 uM): 242 nM
- apparent KD of MS2 coat protein (input ligand: none): 46.8 nM

Sequence: AAGCAUUGCCAAAGGUAGUGCUUUACAUGAGGAUCACCCAUGUAGGAUAUGGUAGGCAAAGCUUACCAGAAGGACAUGAUAAUU [Mat - Exclusion NG 3 - Mod of JL - D13] (Eterna round: R96, puzzle: Exclusion NG 3)
- apparent KD of MS2 coat protein (input ligand: FMN 200 uM): 151 nM
- apparent KD of MS2 coat protein [2]: 47.4 nM
- apparent KD of MS2 coat protein (input ligand: none): 47.9 nM

Sequence: AAGCCACAUGAGGAUCACCCAUGUCAGGAUAUCUCGAAAAGCAUAGAAAUAUGCGAAGAGAGAAGGGACUACUC [ChP Ext 10-04-2015 #4] (puzzle: Exclusion 1)
- apparent KD of MS2 coat protein [1]: 42.7 nM

— the supplement of paper PMC9170038
